Legend:
[1] = target: the molecule itself; experiment: AUC; sedimentation equilibrium, 20°C, 13 K rpm, three protein concentrations between 0.93 and 0.31 mg/mL, 20 mM Tris pH 8.0, 100 mM NaCl; monomer/dimer
[2] = substrate: CC(C)[C@H](N)C(=O)N1CCC[C@H]1C(=O)O; experiment: colorimetric ninhydrin prolidase assay; type: biochemical, Pyrococcus horikoshii; settings: 1.2 mM CoCl2, 50 mM MOPS pH 7.0, 100°C, hydrochloride salt

B1: putative dipeptidase (Phdpd) from Pyrococcus horikoshii OT3 (enzyme, UniProt O58691 1-356, looked up)
chain: MRLEKFIHLLGERGFDGALISPGTNLYYLTGLRLHEVGERLAILAVSAEGDYRFLAPSLYENVVNNFPATFWHDGENPYAKLREILEELGISKGRILIEDTMRADWLIGIMKLGKFTFQPLSSLIKELRMIKDKEEVKMMEHASRIADKVFEEILTWDLIGMKERELALKIELLIRELSDGIAFEPIVASGENAANPHHEPGERKIRKGDIIILDYGARWKGYCSDITRTIGLGELDERLVKIYEVVKDAQESAFKAVREGIKAKDVDSRAREVISKAGYGEYFIHRTGHGLGLDVHEEPYIGPDGEVILKNGMTFTIEPGIYVPGLGGVRIEDDIVVDEGKGRRLTKAERELIIL
notes: putative dipeptidase / X-Pro dipeptidase (prolidase), Project ID PH0974, Pyrococcus horikoshii OT3; No tag is mentioned; the plasmid was made by the 'super-rare-cutter system' (manuscript in preparation); A selenomethionine-labelled crystal was used for MAD phasing only; also called PH0974; X-Pro dipeptidase (prolidase) of Project ID PH0974; source: E. coli BL21-CodonPlus (DE3)-RIL, purified …
stoichiometry N [1]: 2
Km [2]: 5.0 mM
kcat [2]: 541 s⁻¹
